In the RNAGym collection of RNA variant scans (doi:10.1093/nar/gkz1192):

B1: CPEB3 Ribozyme (parent)
chain: UAACAGGGGGCCACAGCAGAAGCGUUCACGUCGCAGCCCCUGUCAGAUUCUGGUGAAUCUGCGAAUUCUGCUGUAUAUCUC

Variants of: B1
Test: self-cleavage, relative activity (ratio to wild type); higher = more cleavage; in vitro, sequencing
Outline: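 Libraries of CPEB3 self-cleaving ribozyme mutants came from rounds of error-prone PCR and carried barcodes, which DNA sequencing matched to variants. In vitro transcription used T7 RNA polymerase at 37°C for 5 hours, with a further 15 min in DNase I before EDTA stopped the reaction; the ribozymes cleaved during both steps. The RNA was reverse transcribed with template switching and sequenced on Illumina. Relative activity is the cleaved/total read fraction of a variant divided by that of the unmutated ribozyme, averaged over three batches with at least 5 reads.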

Variant | self-cleavage
A15G A47G | 0.87
A15G A47U | 0.64
A15U A57U | 0.15
A15U A57G | 0.66
A15G G16U | 0.25
A15G G16A | 0.33
A15U A56G | 0.46
A15U A56U | 0.47
C14U U72C | 1.21
A15G C44U | 0.32
A15G C44A | 0.28
A15G C38A | 0.42
A15G C38U | 0.81
A15C A20C | 0.19
A15C A20G | 0.66
A15C A20U | 0.35
A15G U78A | 0.96
A15G U78G | 1.06
A15G U78C | 0.78
A15G U58A | 0.32
A15G U58C | 0.44
A15G C34U | 0.25
A15G C34A | 0.2
A15G C34G | 0.29

Variant | self-cleavage
A15G A65U | 0.23
A15G A65G | 0.39
A15C U78C | 0.87
A15C U78A | 1.05
A15G C23A | 0.19
A15G C23G | 0.42
A15G C23U | 0.29
A15G C62U | 0.26
A15G C62A | 0.17
A15C U51A | 1.06
A15C U51C | 0.68
C14U U51C | 1.25
C14U U51A | 1.24
A15C C40U | 0.72
A15G A35G | 0.68
A15G A35U | 0.53
A15G A35C | 0.45
A15G G53C | 1.05
A15G G53A | 1.02
A15G G53U | 1.02
A15U A77G | 0.87
A15U A77C | 0.41
A15G U54A | 0.95
A15G U54G | 0.96

Variant | self-cleavage
A15G U54C | 0.87
C14U C38A | 0.14
A15G A21G | 0.49
A15G A21C | 0.35
A15G A21U | 0.33
C14U A77C | 0.53
C14U A77G | 1.34
A15G U43A | 1.05
A15G U43G | 0.28
A15G U43C | 0.47
A15G G19C | 0.49
A15G G19U | 0.28
A15G A45U | 0.44
A15G A45C | 0.31
A15G A45G | 0.66
A15C U66G | 0.45
A15C U66C | 0.29
A15C G53C | 0.95
A15G C17A | 0.34
A15G C17U | 0.48
C14U U66A | 0.52
C14U U66C | 0.8
C14U U41C | 1.2
C14U U41A | 0.24

Variant | self-cleavage
A15G G63A | 0.79
A15G G63C | 0.86
A15C A28U | 0.8
C14U U25C | 0.28
C14U U25A | 0.44
A15G G30C | 0.27
A15G G30A | 0.33
A15G G30U | 0.42
A15C G63A | 0.99
A15G A64G | 0.65
A15G A64C | 0.25
A15G A64U | 0.33
A15C A21G | 0.49
A15C A21U | 0.34
A15C A21C | 0.26
A15C C17U | 0.35
A15G G36U | 0.3
A15G G36A | 0.34
A15G U66C | 0.37
A15G U66G | 0.35
A15G U66A | 0.45
C14U C29U | 0.72
A15C A35G | 1.08
A15G A75U | 1.02

Variant | self-cleavage
A15G A75G | 0.92
C14U U67A | 0.42
C14U U67C | 0.23
C14U U69C | 0.57
A15C | 0.92
A15U | 0.76
A15G | 0.92
A15C U48C | 0.47
A15C U54C | 0.98
C14U U43C | 1.08
C14U U43A | 1.18
C14U U43G | 0.27
A15C C29U | 0.22
C14U C39A | 0.55
A15G C50U | 0.33
A15G C50A | 0.4
A15G C50G | 0.57
A15G U49A | 0.61
A15G U49G | 0.52
A15G U49C | 0.28
A15G U72C | 1.16
A15G U72G | 0.46
A15G U72A | 0.48
A15C G73A | 1.26

Variant | self-cleavage
A15U A20U | 0.27
A15U A20G | 0.41
A15C C37U | 0.58
C14U C23G | 0.12
C14U A35U | 1.04
A15G U41A | 0.23
A15G U41C | 0.74
A15G U41G | 0.38
A15G G52C | 0.88
A15G G52A | 0.99
A15G C32U | 0.19
A15G C32G | 0.11
A15G C32A | 0.24
C14U U74G | 1.27
A15C U74C | 1.16
A15G G46U | 0.18
A15G G46A | 0.38
C14U A57C | 0.66
C14U A57G | 1.1
A15G A56G | 0.62
A15G A56U | 0.39
A15G A56C | 0.35
A15C U76A | 1.19
A15G A28G | 0.49

Variant | self-cleavage
A15G A28C | 0.53
A15G A28U | 0.39
C14U U49C | 0.33
C14U C79A | 1.29
A15C U58A | 0.41
A15C U58C | 0.21
A15C U58G | 0.29
A15U A75G | 0.67
A15U A75U | 0.87
A15C U72A | 0.8
A15C U72C | 1.1
A15C A18C | 0.35
A15C A18U | 0.32
A15C A18G | 0.41
A15C U60C | 0.28
A15G C59A | 0.27
A15G C59U | 0.69
A15G A18C | 0.37
A15G A18U | 0.26
A15G A18G | 0.5
A15G C79U | 1.04
A15G C79G | 1.26
A15G C79A | 1.19
